Assay results from publication PMC11940719, “Assembly Formation of P65 Protein, Featured by an Intrinsically Disordered Region Involved in Gliding Machinery of Mycoplasma pneumoniae” (Biomolecules, 2025).
Like-named read-outs stand apart in the source and are kept apart here.

What was measured:
[1] = molecular target: P65 fragment C (tryptic fragment of region II) (Mycoplasma pneumoniae (strain M129-B7)); assay: AUC; sedimentation velocity in 150 mM NaCl, 20 mM Tris-HCl (pH 8.0); absorbance scans at 10-minute intervals; C(s) distribution (SEDFIT)
[2] = molecular target: the molecule itself; assay: as above
[3] = molecular target: the molecule itself; assay: as above; remark: listed apart in the source
[4] = molecular target: the molecule itself; assay: negative staining electron microscopy; proteins at 40 µg/mL stained with 2% uranyl acetate on carbon-coated grids, 80 kV

Work on “P65 fragment C (tryptic fragment of region II) (domain or fragment)” yielded a stoichiometry N [1] of 3.

B1: full-length P65 protein of Mycoplasma pneumoniae (natural protein)
chain: MDINKPGWNQSDQQATAYDPNQQQYYGDGSTYYDPDQAVDPNQAYYPDPNTYPDAAAYYGYGQDGQAYPQDYAQDPNQAYYADPNAYQDPNAYTDPNAYVDPNAYQDPNAYVDPNNYTDPNAYYGYGQDGQAYPQDYAQDPNQAYYADPNAYQDPNAYTDPYYVTSTDPNAYYGQVDNVPALEASDLAYEVTPQEQAAEQELFSEPETKVIREIHEFPFEKIRSYFQTDFDSYNSRLTQLKDKLDNAIFSMRKAIDTVKENSANLQIMKQNFERQLKEQQTQRLTSNTDAEKIGAKINQLEERMQRLSRTMESVEWTKKEPRQEQFDPRFVDPRNFNNYVNNTDTMMSMFEKVLMMNLLRSTTPVQPPVQYFTPQPLTASPRPVYEEPISASFRRRGYRGDEFYE
notes: P65 protein of Mycoplasma pneumoniae strain M129-B7, p65 gene (AGC04228), codon-optimised, in pET-15b (NdeI, BamHI); 405 residues; Forms a multimer of more than 60 subunits (about 3.10 x 10^6 Da) by analytical ultracentrifugation; The printed mass of 49,203 Da probably includes the tag peptide; also called Whole
For B1, the “stoichiometry N” value [2] was greater than 60.

B2: P65 fragment D (regions I and II, residues 1-320) (domain or fragment)
chain: MDINKPGWNQSDQQATAYDPNQQQYYGDGSTYYDPDQAVDPNQAYYPDPNTYPDAAAYYGYGQDGQAYPQDYAQDPNQAYYADPNAYQDPNAYTDPNAYVDPNAYQDPNAYVDPNNYTDPNAYYGYGQDGQAYPQDYAQDPNQAYYADPNAYQDPNAYTDPYYVTSTDPNAYYGQVDNVPALEASDLAYEVTPQEQAAEQELFSEPETKVIREIHEFPFEKIRSYFQTDFDSYNSRLTQLKDKLDNAIFSMRKAIDTVKENSANLQIMKQNFERQLKEQQTQRLTSNTDAEKIGAKINQLEERMQRLSRTMESVEWTKKE
notes: P65 protein of Mycoplasma pneumoniae strain M129-B7 (AGC04228), residues 1-320 (regions I and II); No cleavage of the tag is described; The printed theoretical mass of 39,080 Da probably includes the tag peptide; source: E. coli BL21(DE3), soluble fraction, purified (HisTrap HP, size exclusion chromatography)
With B2 the “stoichiometry N” value [3] was 3.

B3: P65 fragment B (residues 185-405) (domain or fragment)
chain: SDLAYEVTPQEQAAEQELFSEPETKVIREIHEFPFEKIRSYFQTDFDSYNSRLTQLKDKLDNAIFSMRKAIDTVKENSANLQIMKQNFERQLKEQQTQRLTSNTDAEKIGAKINQLEERMQRLSRTMESVEWTKKEPRQEQFDPRFVDPRNFNNYVNNTDTMMSMFEKVLMMNLLRSTTPVQPPVQYFTPQPLTASPRPVYEEPISASFRRRGYRGDEFYE
notes: P65 protein of Mycoplasma pneumoniae strain M129-B7 (AGC04228), residues 185-405 by mass spectrometry (26.3 kDa; theoretical 26,279 Da); peptide mass fingerprinting covers at least residues 212-405; source: the digest containing fragment B was used
B3: binds [4].
